One block for each binder: values may come before it.
Legend:
4H1446-AA = molecular target: T1, 4H1446-AA; assay: two-hybrid library CCmax;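 note: natural log of median RNA to DNA barcode read ratio; higher means stronger binding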
T1 chain: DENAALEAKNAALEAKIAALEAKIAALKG

4H1845-AA = molecular target: T2, 4H1845-AA; assay: two-hybrid library CCmax; settings: mean of both orientations;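 note: natural log of median RNA to DNA barcode read ratio; higher means stronger binding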
T2 chain: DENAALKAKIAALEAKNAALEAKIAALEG

4H2442-AA = molecular target: T3, 4H2442-AA; assay: two-hybrid library CCmax; settings: mean of both orientations;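 note: natural log of median RNA to DNA barcode read ratio; higher means stronger binding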
T3 chain: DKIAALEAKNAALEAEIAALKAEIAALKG

4H3112-AA = molecular target: T4, 4H3112-AA; assay: two-hybrid library CCmax; settings: mean of both orientations;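 note: natural log of median RNA to DNA barcode read ratio; higher means stronger binding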
T4 chain: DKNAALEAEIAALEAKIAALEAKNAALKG

4H3354-AA = molecular target: T5, 4H3354-AA; assay: two-hybrid library CCmax; settings: mean of both orientations;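 note: natural log of median RNA to DNA barcode read ratio; higher means stronger binding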
T5 chain: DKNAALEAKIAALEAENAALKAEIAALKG

4H3427-AA = molecular target: T6, 4H3427-AA; assay: two-hybrid library CCmax; settings: mean of both orientations;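 note: natural log of median RNA to DNA barcode read ratio; higher means stronger binding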
T6 chain: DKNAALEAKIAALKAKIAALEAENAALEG

4H3782-AA = molecular target: T7, 4H3782-AA; assay: two-hybrid library CCmax; settings: mean of both orientations
T7 chain: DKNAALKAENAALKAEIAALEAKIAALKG

4H3855-AA = molecular target: T8, 4H3855-AA; assay: two-hybrid library CCmax; settings: mean of both orientations
T8 chain: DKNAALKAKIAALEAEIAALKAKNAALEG

4H4001-AA = molecular target: T9, 4H4001-AA; assay: two-hybrid library CCmax; settings: mean of both orientations
T9 chain: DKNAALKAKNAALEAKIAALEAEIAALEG

4H568-AA = molecular target: T10, 4H568-AA; assay: two-hybrid library CCmax; settings: mean of both orientations
T10 chain: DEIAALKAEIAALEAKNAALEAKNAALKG

4H687-AA = molecular target: T11, 4H687-AA; assay: two-hybrid library CCmax; settings: mean of both orientations
T11 chain: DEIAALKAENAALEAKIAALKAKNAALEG

4H717-AA = molecular target: T12, 4H717-AA; assay: two-hybrid library CCmax; settings: mean of both orientations
T12 chain: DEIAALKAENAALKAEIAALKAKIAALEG

4H797-AA = molecular target: T13, 4H797-AA; assay: two-hybrid library CCmax; settings: mean of both orientations
T13 chain: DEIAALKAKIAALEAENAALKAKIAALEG

4H883-AA = molecular target: T14, 4H883-AA; assay: two-hybrid library CCmax; settings: mean of both orientations
T14 chain: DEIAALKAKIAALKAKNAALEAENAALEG

4H918-AA = molecular target: T15, 4H918-AA; assay: two-hybrid library CCmax; settings: mean of both orientations
T15 chain: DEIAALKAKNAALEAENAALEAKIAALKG

4H953-AA = molecular target: T16, 4H953-AA; assay: two-hybrid library CCmax; settings: mean of both orientations
T16 chain: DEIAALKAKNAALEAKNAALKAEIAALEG

4H967-AA = molecular target: T17, 4H967-AA; assay: two-hybrid library CCmax; settings: mean of both orientations
T17 chain: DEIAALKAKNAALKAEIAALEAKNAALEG

4H1338-bA = molecular target: T18, 4H1338-bA; assay: two-hybrid library CCNG1
T18 chain: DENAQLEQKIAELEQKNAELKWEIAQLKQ

4H1348-bA = molecular target: T19, 4H1348-bA; assay: two-hybrid library CCNG1
T19 chain: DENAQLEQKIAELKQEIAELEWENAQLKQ

4H1373-bA = molecular target: T20, 4H1373-bA; assay: two-hybrid library CCNG1
T20 chain: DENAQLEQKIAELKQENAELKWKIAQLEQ

4H1449-bA = molecular target: T21, 4H1449-bA; assay: two-hybrid library CCNG1
T21 chain: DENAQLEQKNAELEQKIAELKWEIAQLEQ

4H1544-bA = molecular target: T22, 4H1544-bA; assay: two-hybrid library CCNG1
T22 chain: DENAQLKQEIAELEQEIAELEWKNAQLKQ

4H1710-bA = molecular target: T23, 4H1710-bA; assay: two-hybrid library CCNG1
T23 chain: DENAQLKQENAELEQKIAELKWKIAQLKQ

4H1899-bA = molecular target: T24, 4H1899-bA; assay: two-hybrid library CCNG1
T24 chain: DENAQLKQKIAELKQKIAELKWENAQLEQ

4H1985-bA = molecular target: T25, 4H1985-bA; assay: two-hybrid library CCNG1
T25 chain: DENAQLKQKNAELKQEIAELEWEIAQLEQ

4H3613-bA = molecular target: T26, 4H3613-bA; assay: two-hybrid library CCNG1
T26 chain: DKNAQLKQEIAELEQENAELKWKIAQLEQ

4H3628-bA = molecular target: T27, 4H3628-bA; assay: two-hybrid library CCNG1
T27 chain: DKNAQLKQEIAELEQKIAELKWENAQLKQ

4H3817-bA = molecular target: T28, 4H3817-bA; assay: two-hybrid library CCNG1
T28 chain: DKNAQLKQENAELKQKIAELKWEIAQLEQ

4H3858-bA = molecular target: T29, 4H3858-bA; assay: two-hybrid library CCNG1
T29 chain: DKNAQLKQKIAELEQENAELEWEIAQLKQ

4H3974-bA = molecular target: T30, 4H3974-bA; assay: two-hybrid library CCNG1
T30 chain: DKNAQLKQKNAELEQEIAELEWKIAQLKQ

4H570-bA = molecular target: T31, 4H570-bA; assay: two-hybrid library CCNG1
T31 chain: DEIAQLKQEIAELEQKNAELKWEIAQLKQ

4H850-bA = molecular target: T32, 4H850-bA; assay: two-hybrid library CCNG1
T32 chain: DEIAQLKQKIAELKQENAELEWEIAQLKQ

4H1082-AA = molecular target: T33, 4H1082-AA; assay: two-hybrid library CCmax
T33 chain: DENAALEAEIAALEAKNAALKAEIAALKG

4H1103-AA = molecular target: T34, 4H1103-AA; assay: two-hybrid library CCmax; settings: mean of both orientations
T34 chain: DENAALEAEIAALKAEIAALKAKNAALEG

4H1198-AA = molecular target: T35, 4H1198-AA; assay: two-hybrid library CCmax; settings: mean of both orientations
T35 chain: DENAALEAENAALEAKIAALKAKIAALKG

4H1350-AA = molecular target: T36, 4H1350-AA; assay: two-hybrid library CCmax; settings: mean of both orientations
T36 chain: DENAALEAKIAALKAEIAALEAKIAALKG

4H1405-AA = molecular target: T37, 4H1405-AA; assay: two-hybrid library CCmax; settings: mean of both orientations
T37 chain: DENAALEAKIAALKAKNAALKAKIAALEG

4H2211-AA = molecular target: T38, 4H2211-AA; assay: two-hybrid library CCmax; settings: mean of both orientations
T38 chain: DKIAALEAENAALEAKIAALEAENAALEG

4H2238-AA = molecular target: T39, 4H2238-AA; assay: two-hybrid library CCmax; settings: mean of both orientations
T39 chain: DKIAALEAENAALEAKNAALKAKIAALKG

4H2513-AA = molecular target: T40, 4H2513-AA; assay: two-hybrid library CCmax; settings: mean of both orientations
T40 chain: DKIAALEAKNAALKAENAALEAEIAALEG

4H2536-AA = molecular target: T41, 4H2536-AA; assay: two-hybrid library CCmax; settings: mean of both orientations
T41 chain: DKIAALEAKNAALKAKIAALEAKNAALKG

4H2608-AA = molecular target: T42, 4H2608-AA; assay: two-hybrid library CCmax; settings: mean of both orientations
T42 chain: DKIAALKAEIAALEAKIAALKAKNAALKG

4H2614-AA = molecular target: T43, 4H2614-AA; assay: two-hybrid library CCmax; settings: mean of both orientations
T43 chain: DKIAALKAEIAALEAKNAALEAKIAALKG

4H2726-AA = molecular target: T44, 4H2726-AA; assay: two-hybrid library CCmax; settings: mean of both orientations
T44 chain: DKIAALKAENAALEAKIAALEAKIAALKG

4H2935-AA = molecular target: T45, 4H2935-AA; assay: two-hybrid library CCmax; settings: mean of both orientations
T45 chain: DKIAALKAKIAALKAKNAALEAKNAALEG

4H327-AA = molecular target: T46, 4H327-AA; assay: two-hybrid library CCmax; settings: mean of both orientations
T46 chain: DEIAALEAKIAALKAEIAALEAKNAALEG

4H3605-AA = molecular target: T47, 4H3605-AA; assay: two-hybrid library CCmax; settings: mean of both orientations
T47 chain: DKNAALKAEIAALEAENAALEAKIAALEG

4H3625-AA = molecular target: T48, 4H3625-AA; assay: two-hybrid library CCmax; settings: mean of both orientations
T48 chain: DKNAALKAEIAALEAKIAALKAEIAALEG

4H3664-AA = molecular target: T49, 4H3664-AA; assay: two-hybrid library CCmax; settings: mean of both orientations
T49 chain: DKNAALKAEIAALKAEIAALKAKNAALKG

4H369-AA = molecular target: T50, 4H369-AA; assay: two-hybrid library CCmax; settings: mean of both orientations
T50 chain: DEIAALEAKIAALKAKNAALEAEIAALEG

4H3922-AA = molecular target: T51, 4H3922-AA; assay: two-hybrid library CCmax; settings: mean of both orientations
T51 chain: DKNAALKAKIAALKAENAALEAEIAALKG

4H4033-AA = molecular target: T52, 4H4033-AA; assay: two-hybrid library CCmax; settings: mean of both orientations
T52 chain: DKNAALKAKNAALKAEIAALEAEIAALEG

4H481-AA = molecular target: T53, 4H481-AA; assay: two-hybrid library CCmax; settings: mean of both orientations
T53 chain: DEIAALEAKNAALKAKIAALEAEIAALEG

4H55-AA = molecular target: T54, 4H55-AA; assay: two-hybrid library CCmax; settings: mean of both orientations
T54 chain: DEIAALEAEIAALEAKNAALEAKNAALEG

4H629-AA = molecular target: T55, 4H629-AA; assay: two-hybrid library CCmax
T55 chain: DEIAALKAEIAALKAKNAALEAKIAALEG

4H662-AA = molecular target: T56, 4H662-AA; assay: two-hybrid library CCmax; settings: mean of both orientations
T56 chain: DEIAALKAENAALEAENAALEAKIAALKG

interaction score (4H1446-AA): 0.267 | interaction score (4H1845-AA): -1.25 | interaction score (4H2442-AA): -1.19 | interaction score (4H3112-AA): -0.365 | interaction score (4H3354-AA): -1.43 | interaction score (4H3427-AA): -0.719 | interaction score (4H3782-AA): 0.114 | interaction score (4H3855-AA): -0.445 | interaction score (4H4001-AA): 2.23 | interaction score (4H568-AA): -1.7 | interaction score (4H687-AA): -1.79 | interaction score (4H717-AA): -1.15 | interaction score (4H797-AA): -1.49 | interaction score (4H883-AA): -1.54 | interaction score (4H918-AA): -1.53 | interaction score (4H953-AA): -0.751 | interaction score (4H967-AA): -1.1
B1: 4H1446-AA (peptide)
chain: DENAALEAKNAALEAKIAALEAKIAALKG

interaction score (4H1338-bA): -0.0383 | interaction score (4H1348-bA): -0.532 | interaction score (4H1373-bA): -0.825 | interaction score (4H1449-bA): -0.906 | interaction score (4H1544-bA): -0.0537 | interaction score (4H1710-bA): -1.12 | interaction score (4H1899-bA): -0.794 | interaction score (4H1985-bA): 0.203 | interaction score (4H3613-bA): 0.511 | interaction score (4H3628-bA): -0.607 | interaction score (4H3817-bA): -0.561 | interaction score (4H3858-bA): 1.87 | interaction score (4H3974-bA): 1.12 | interaction score (4H570-bA): -0.499 | interaction score (4H850-bA): 1.4
B2: 4H1338-bA (peptide)
chain: DENAQLEQKIAELEQKNAELKWEIAQLKQ

interaction score (4H1082-AA): -0.277 | interaction score (4H1103-AA): -1.29 | interaction score (4H1198-AA): -0.589 | interaction score (4H1350-AA): 0.509 | interaction score (4H1405-AA): -1.13 | interaction score (4H2211-AA): -0.726 | interaction score (4H2238-AA): -1.2 | interaction score (4H2513-AA): -0.261 | interaction score (4H2536-AA): -1.58 | interaction score (4H2608-AA): 1.21 | interaction score (4H2614-AA): 0.814 | interaction score (4H2726-AA): -0.0246 | interaction score (4H2935-AA): -1.5 | interaction score (4H327-AA): -0.938 | interaction score (4H3605-AA): 1.35 | interaction score (4H3625-AA): -0.987 | interaction score (4H3664-AA): -1.83 | interaction score (4H369-AA): -0.173 | interaction score (4H3922-AA): 2.18 | interaction score (4H4033-AA): -0.637 | interaction score (4H481-AA): -1.09 | interaction score (4H55-AA): -1.89 | interaction score (4H629-AA): -0.619 | interaction score (4H662-AA): -0.82
B3: 4H1082-AA (peptide)
chain: DENAALEAEIAALEAKNAALKAEIAALKG
